Assay results as given in US20070224662.

Target: inactive (non-phosphorylated) HIS-tagged MAPK14
Sequence (chain, as listed by the source): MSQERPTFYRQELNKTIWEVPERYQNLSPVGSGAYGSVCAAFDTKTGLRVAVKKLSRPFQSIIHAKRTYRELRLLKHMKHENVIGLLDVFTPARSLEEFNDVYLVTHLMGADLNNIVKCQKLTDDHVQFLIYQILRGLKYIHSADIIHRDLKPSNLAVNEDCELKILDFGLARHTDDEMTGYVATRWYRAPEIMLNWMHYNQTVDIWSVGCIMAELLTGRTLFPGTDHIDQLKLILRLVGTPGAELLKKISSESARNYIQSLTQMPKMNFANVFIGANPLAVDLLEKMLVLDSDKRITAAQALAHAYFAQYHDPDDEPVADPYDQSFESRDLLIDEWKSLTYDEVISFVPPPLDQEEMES

B1: MKK6 (no-tag upstream kinase) (protein)
chain: MSQSKGKKRNPGLKIPKEAFEQPQTSSTPPRDLDSKACISIGNQNFEVKADDLEPIMELGRGAYGVVEKMRHVPSGQIMAVKRIRATVNSQEQKRLLMDLDISMRTVDCPFTVTFYGALFREGDVWICMELMDTSLDKFYKQVIDKGQTIPEDILGKIAVSIVKALEHLHSKLSVIHRDVKPSNVLINALGQVKMCDFGISGYLVDSVAKTIDAGCKPYMAPERINPELNQKGYSVKSDIWSLGITMIELAILRFPYDSWGTPFQQLKQVVEEPSPQLPADKFSAEFVDFTSQCLKKNSKERPTYPELMQHPFFTLHESKGTDVASFVKLILGD
What does the source list for B1?
amount of phosphorylated MAPK14, Western blot with the p38 antibody, at decreasing MKK6 plasmid (FIG. 3): as the concentration of the MKK6 plasmid present in the reaction was decreased, the amount of phosphorylation MAPK14 similarly decreased; phosphorylation of MAPK14, Western blot with anti-phospho-p38 antibody (FIG. 2): co-expression of MAPK14 with MKK6 in the presence of an HEK 293 cell extract greatly enhances the phosphorylation of proteins present in the reaction
